Changes are numbered by the printed parent chain. Names may count otherwise.
T1: FcγRIIa type H extracellular domain with C-terminal His tag (human, UniProt P12318 34-217)
T1 construct: extracellular domain; also called FcgRIIaH; FcγRIIa H
T1 sequence (looked up): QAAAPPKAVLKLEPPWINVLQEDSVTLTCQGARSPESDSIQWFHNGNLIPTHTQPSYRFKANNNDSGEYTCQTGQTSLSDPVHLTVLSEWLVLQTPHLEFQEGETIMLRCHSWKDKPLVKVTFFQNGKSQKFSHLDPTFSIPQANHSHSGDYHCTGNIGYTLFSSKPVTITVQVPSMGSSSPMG

T2: FcγRIIb extracellular domain with C-terminal His tag (human, UniProt P31994 43-217)
T2 construct: extracellular domain; also called FcgRIIb
T2 sequence (looked up): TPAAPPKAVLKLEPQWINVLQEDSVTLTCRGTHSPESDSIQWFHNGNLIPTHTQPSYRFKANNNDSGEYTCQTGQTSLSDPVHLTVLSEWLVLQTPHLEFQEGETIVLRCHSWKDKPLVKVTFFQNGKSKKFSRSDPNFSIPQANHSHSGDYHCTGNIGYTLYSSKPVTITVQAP

T3: FcγRIIb extracellular domain with C-terminal His tag (human, UniProt P31994 43-217)
T3 construct: extracellular domain; For crystallography it was expressed with kifunensine and trimmed with Endo F1; also called FcgRIIb; FcγRIIb extracellular region; not shown: His tag attached to the C terminus
T3 sequence (looked up): T2 sequence (looked up)

T4: FcγRIIa type R extracellular domain with C-terminal His tag (human, UniProt P12318 34-217)
T4 chain: T1 sequence (looked up) with H134R

B1: IL6R-2B253/IL6R-L (antibody, human IgG1, kappa)
heavy: QVQLQESGPGLVKPSETLSLTCAVSGHSISHDHAWSWVRQPPGEGLEWIGFISYSGITNYNPSLQGRVTISRDNSKNTLYLQMNSLRAEDTAVYYCARSLARTTAMDYWGEGTLVTVSSASTKGPSVFPLAPSSKSTSGGTAALGCLVKDYFPEPVTVSWNSGALTSGVHTFPAVLQSSGLYSLSSVVTVPSSSLGTQTYICNVNHKPSNTKVDKKVEPKSCDKTHTCPPCPAPDLLGGDSVFLFPPKPKDTLMISRTPEVTCVVVDVSHEDPEVKFNWYVDGVEVHNAKTKPREEQYNSTYRVVSVLTVLHQDWLNGKEYKCKMSNKALPAPIEKTISKAKGQPREPQVYTLPPSRDELTKNQVSLTCLVKGFYPSDIAVEWESNGQPENNYKTTPPVLDSDGSFFLYSKLTVDKSRWQQGNVFSCSVMHEALHNHYTQESLSLSP
light: not shown
B2: IL6R-BP206/IL6R-L (antibody, human IgG1, kappa)
heavy: B1 heavy with P273G, M325V, A332R
light: not shown
B3: IL6R-BP562/IL6R-L (antibody, human IgG1, kappa)
heavy: B1 heavy with D235E, G239D, H270D, P273G, E274D, Y298D, M325V, A332R
light: not shown
notes: Anti-human IL-6R IgG1; alterations introduced into IL6R-B3 (G1d with K439E)
B4: IL6R-BP203/IL6R-L (antibody, human IgG1, kappa)
heavy: B1 heavy with D235E, G239D, P273G, M325V, A332R
light: not shown
B5: IL6R-BP568/IL6R-L (antibody, human IgG1, kappa)
heavy: B1 heavy with V266I, S269A, H270E, P273G, M325V
light: not shown
notes: as for B3
B6: IL6R-BP207/IL6R-L (antibody, human IgG1, kappa)
heavy: B1 heavy with M325V, A332R
light: not shown
B7: IL6R-BP209/IL6R-L (antibody, human IgG1, kappa)
heavy: B1 heavy with D235E, G239D, H270D, P273G, M325V, K328A, A332R
light: not shown
B8: IL6R-BP560/IL6R-L (antibody, human IgG1, kappa)
heavy: B1 heavy with D235E, S269G, H270E, P273G, Y298D, M325V, A332R
light: not shown
notes: as for B3
B9: IL6R-BP199/IL6R-L (antibody, human IgG1, kappa)
heavy: B1 heavy with M325V, K328D, A332R
light: not shown
B10: IL6R-BP213/IL6R-L (antibody, human IgG1, kappa)
heavy: B1 heavy with H270D, P273G, M325V, A332R
light: not shown
B11: IL6R-BP211/IL6R-L (antibody, human IgG1, kappa)
heavy: B1 heavy with H270D, P273G, M325V, K328A, A332R
light: not shown
B12: IL6R-BP561/IL6R-L (antibody, human IgG1, kappa)
heavy: B1 heavy with G239D, H270D, P273G, E274D, Y298D, M325V, A332R
light: not shown
notes: as for B3
B13: IL6R-BP567/IL6R-L (antibody, human IgG1, kappa)
heavy: B1 heavy with V266I, S269A, H270E, P273G, Y298D, M325V
light: not shown
notes: as for B3
B14: IL6R-BP564/IL6R-L (antibody, human IgG1, kappa)
heavy: B1 heavy with D235E, G239D, H270E, P273G, E274D, Y298D, M325V, A332R
light: not shown
notes: as for B3
B15: GpH7-AP001/GpH7-BP063/GpL16-k0 (antibody, human IgG1, kappa, name in EU numbering)
heavy 1: QVQLVQSGAEVKKPGASVTVSCKASGYTFTDYEMHWIRQPPGEGLEWIGAIDPKTGDTAYSESFQDRVTLTADKSTSTAYMELSSLTSEDTAVYYCTRFYSYTYWGQGTLVTVSSASTKGPSVFPLAPSSKSTSGGTAALGCLVKDYFPEPVTVSWNSGALTSGVHTFPAVLQSSGLYSLSSVVTVPSSSLGTQTYICNVNHKPSNTKVDKKVEPKSCDKTHTCPPCPAPELLGGDSVFLFPPKPKDTLMISRTPEVTCVVVDVSHEDPEVKFNWYVDGVEVHNAKTKPREEQYNSTYRVVSVLTVLHQDWLNGKEYKCKVSNKALPAPIEKTISKAKGQPREPQVYTLPPSRKELTKNQVSLTCLVKGFYPSDIAVEWESNGQPENNYKTTPPVLDSDGSFFLYSKLTVDKSRWQQGNVFSCSVMHEALHNRYTQKSLSLSP
heavy 2: not shown
light: DIVMTQSPLSLPVTPGEPASISCQASESLVHSNRNTYLHWYLQKPGQSPQLLIYKVSNRFSGVPDRFSGSGSGTDFTLKISRVEAEDVGVYYCSQNTHVPPTFGQGTKVEIERTVAAPSVFIFPPSDEQLKSGTASVVCLLNNFYPREAKVQWKVDNALQSGNSQESVTEQDSKDSTYSLSSTLTLSKADYEKHKVYACEVTHQGLSSPVTKSFNRGEC
notes: Heterodimerized anti-glypican 3 IgG1
B16: GpH7-AP001/GpH7-BP069/GpL16-k0 (antibody, human IgG1, kappa, name in EU numbering)
heavy 1: B15 heavy 1
heavy 2: not shown
light: B15 light
notes: as for B15

Key:
[1] = biological target: T5, FcγRIa extracellular domain with C-terminal His tag (human, UniProt P12314 16-292); assay: SPR, captured antibody, FcgR analyte
T5 construct: also called FcgRIa
T5 sequence (P12314 16-292): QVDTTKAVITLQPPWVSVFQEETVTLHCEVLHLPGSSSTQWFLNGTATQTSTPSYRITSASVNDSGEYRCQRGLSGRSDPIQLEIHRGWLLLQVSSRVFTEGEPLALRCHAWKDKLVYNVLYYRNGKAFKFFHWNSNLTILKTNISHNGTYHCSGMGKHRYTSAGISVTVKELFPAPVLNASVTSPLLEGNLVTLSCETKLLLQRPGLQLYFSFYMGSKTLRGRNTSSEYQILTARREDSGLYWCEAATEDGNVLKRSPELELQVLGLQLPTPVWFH
Procedure: (§1) Relative binding activities were calculated for the results of analyzing interactions with the respective FcγRs according to the following method.

[2] = biological target: T1, FcγRIIa type H extracellular domain …; assay: SPR, captured antibody, FcgR analyte
Procedure: as §1

[3] = biological target: T2, FcγRIIb extracellular domain with …; assay: SPR, captured antibody, FcgR analyte
Procedure: as §1

[4] = biological target: T6, FcγRIIIa type V extracellular domain with C-terminal His tag (human, UniProt P08637 17-208); assay: SPR, captured antibody, FcgR analyte
T6 construct: extracellular domain; also called FcgRIIIaV; FcγRIIIaV
T6 sequence (P08637 17-208 F176V): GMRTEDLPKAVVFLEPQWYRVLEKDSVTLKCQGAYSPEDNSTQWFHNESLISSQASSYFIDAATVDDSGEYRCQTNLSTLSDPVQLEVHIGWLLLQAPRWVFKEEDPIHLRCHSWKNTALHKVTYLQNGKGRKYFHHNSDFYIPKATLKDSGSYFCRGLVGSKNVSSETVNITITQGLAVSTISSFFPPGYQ
Procedure: as §1

[5] = biological target: T3, FcγRIIb extracellular domain with …; assay: SPR; KD for FcγRIIaH divided by KD for FcγRIIb
[6] = biological target: T3, FcγRIIb extracellular domain with …; assay: SPR; KD for FcγRIIaR divided by KD for FcγRIIb
[7] = biological target: T7, FcγRIa extracellular domain with C-terminal His tag (human, UniProt P12314 16-292); assay: SPR (Biacore), antibody captured, FcγR as analyte
T7 construct: also called FcgRIa; not shown: His tag attached to the C terminus
T7 sequence (P12314 16-292): as the sequence (P12314 16-292) above

[8] = biological target: T3, FcγRIIb extracellular domain with …; assay: SPR (Biacore), antibody captured, FcγR as analyte
[9] = biological target: T4, FcγRIIa type R extracellular domain …; assay: SPR (Biacore), antibody captured, FcγR as analyte
[10] = biological target: T3, FcγRIIb extracellular domain with …; assay: SPR; KD of IL6R-B3/IL6R-L divided by KD of the variant
[11] = biological target: T4, FcγRIIa type R extracellular domain …; assay: as above
[12] = biological target: T3, FcγRIIb extracellular domain with …; assay: SPR binding amounts, FcgRIIb divided by FcgRIIaR
[13] = biological target: T3, FcγRIIb extracellular domain with …; assay: SPR binding amount, relative to GpH7-AP001/GpH7-BF648/GpL16-k0
[14] = biological target: T4, FcγRIIa type R extracellular domain …; assay: as above

Row | Binder | relative binding activity [1] | relative binding activity [3] | relative binding activity [4] | KD(IIaH)/KD(IIb) [5] | KD(IIaR)/KD(IIb) [6] | Kd [7] [nM] | Kd [8] [nM] | Kd [9] [nM] | KD(IIb) of the parent polypeptide/KD(IIb) of the altered polypeptide [10] | KD(IIaR) of the parent polypeptide/KD(IIaR) of the altered polypeptide [11] | also measured
1 | B1 | 155 relative (IL6R-BF648/IL6R-L = 100) | 156 relative (IL6R-BF648/IL6R-L = 100) | 126 relative (IL6R-BF648/IL6R-L = 100) |  |  |  |  |  |  |  | relative binding activity [2]: 207 relative (IL6R-BF648/IL6R-L = 100)
2 | B2 | 101 relative (IL6R-BF648/IL6R-L = 100) | 168 relative (IL6R-BF648/IL6R-L = 100) | 92 relative (IL6R-BF648/IL6R-L = 100) |  |  |  |  |  |  |  | 
3 | B3 |  |  |  | 466 | 29 | 25 | 24 | 680 | 131 | 1.6 | 
4 | B4 | 35 relative (IL6R-BF648/IL6R-L = 100) | 185 relative (IL6R-BF648/IL6R-L = 100) | 88 relative (IL6R-BF648/IL6R-L = 100) |  |  |  |  |  |  |  | relative binding activity [2]: 255 relative (IL6R-BF648/IL6R-L = 100)
5 | B5 |  |  |  | 748 | 46.1 | 0.19 | 15 | 680 | 211 | 1.6 | 
6 | B6 | 74 relative (IL6R-BF648/IL6R-L = 100) | 124 relative (IL6R-BF648/IL6R-L = 100) | 97 relative (IL6R-BF648/IL6R-L = 100) |  |  |  |  |  |  |  | 
7 | B7 | 68 relative (IL6R-BF648/IL6R-L = 100) | 186 relative (IL6R-BF648/IL6R-L = 100) | 153 relative (IL6R-BF648/IL6R-L = 100) |  |  |  |  |  |  |  | relative binding activity [2]: 267 relative (IL6R-BF648/IL6R-L = 100)
8 | B8 |  |  |  | 168 | 22.8 | 5.6 | 180 | 4200 | 16.8 | 0.3 | 
9 | B9 | 112 relative (IL6R-BF648/IL6R-L = 100) | 144 relative (IL6R-BF648/IL6R-L = 100) | 103 relative (IL6R-BF648/IL6R-L = 100) |  |  |  |  |  |  |  | 
10 | B10 | 118 relative (IL6R-BF648/IL6R-L = 100) | 169 relative (IL6R-BF648/IL6R-L = 100) | 100 relative (IL6R-BF648/IL6R-L = 100) |  |  |  |  |  |  |  | relative binding activity [2]: 123 relative (IL6R-BF648/IL6R-L = 100)
11 | B11 | 128 relative (IL6R-BF648/IL6R-L = 100) | 165 relative (IL6R-BF648/IL6R-L = 100) | 87 relative (IL6R-BF648/IL6R-L = 100) |  |  |  |  |  |  |  | 
12 | B12 |  |  |  |  |  | 9.4 | 18 | 510 |  |  | 
13 | B13 |  |  |  | 1230 | 64.4 | 0.21 | 14 | 890 | 225 | 1.2 | 
14 | B14 |  |  |  | 454 | 26.2 | 31 | 22 | 580 | 141 | 1.9 | 
15 | B15 |  |  |  |  |  |  |  |  |  |  | amount binding to FcgRIIb/amount binding to FcgRIIaR [12]: 1.7; binding amount to FcgRIIb when that of GpH7-AP001/GpH7-BF648 is defined as 100 [13]: 69; binding amount to FcgRIIaR when that of GpH7-AP001/GpH7-BF648 is defined as 100 [14]: 161
16 | B16 |  |  |  |  |  |  |  |  |  |  | amount binding to FcgRIIb/amount binding to FcgRIIaR [12]: 2.2; binding amount to FcgRIIb when that of GpH7-AP001/GpH7-BF648 is defined as 100 [13]: 72; binding amount to FcgRIIaR when that of GpH7-AP001/GpH7-BF648 is defined as 100 [14]: 131

Source: US20210261648A1 (published 2021)
